Laboratory results taken from paper PMC3477848 (Biochemistry, 2012).
Where two headings read alike, the source gives them in different places.

B1: Dpo4, wild-type untagged, Y-family lesion bypass (repair) DNA polymerase of Sulfolobus solfataricus (enzyme)
chain: MIVLFVDFDYFYAQVEEVLNPSLKGKPVVVCVFSGRFEDSGAVATANYEARKFGVKAGIPIVEAKKILPNAVYLPMRKEVYQQVSSRIMNLLREYSEKIEIASIDEAYLDISDKVRDYREAYNLGLEIKNKILEKEKITVTVGISKNKVFAKIAADMAKPNGIKVIDDEEVKRLIRELDIADVPGIGNITAEKLKKLGINKLVDTLSIEFDKLKGMIGEAKAKYLISLARDEYNEPIRTRVRKSIGRIVTMKRNSRNLEEIKPYLFRAIEESYYKLDKRIPKAIHVVAVTEDLDIVSRGRTFPHGISKETAYSESVKLLQKILEEDERKIRRIGVRFSKFIEAIGLDKFFDT
B2: 37-nt hairpin primer-template, unlabeled (structured_DNA)
DNA: TTTTTTTTTTCCCGGGCCGGCGTTTCGCCGGCCCGGG

Legend:
cross-linking = biological target: the molecule itself; assay: cross-linking
[1] = biological target: T1, Dpo4 (SsoDpo4, Y-family DNA polymerase) (Sulfolobus solfataricus, UniProt Q97W02 1-352); assay: ITC
T1 sequence: B1 chain

[2] = biological target: T1, Dpo4 (SsoDpo4, Y-family DNA polymerase); assay: ITC; remark: listed apart in the source

Binder	stoichiometry N (cross-linking)	Ka [1] [M⁻¹]	Ka [2] [M⁻¹]
B1	2	–	–
B2	–	652000	2.23e+06
